This note sets out measurements from paper PMC3314626, “Crystal Structures of the Tetratricopeptide Repeat Domains of Kinesin Light Chains: Insight into Cargo Recognition Mechanisms” (PLoS ONE, 2012).

The term Kd denotes the free concentration of one partner at which half of the binding sites on the other are occupied at equilibrium, for simple one-to-one binding. A higher Kd goes with a looser complex. A word on the stoichiometry N: it is the number of molecules, sites or subunits per partner or assembly.

Common to all, as to experiment: ITC; peptide (1-3 mM) in the syringe injected into 60-130 uM KLC1-TPR or KLC2-TPR (or mutant) in the cell; 25 C; 20 mM Bis-Tris pH 6.5, 500 mM NaCl, 0.5 mM TCEP; one-site binding model
In experiment [1] the target is KLC1-TPR N343S mutant (human) (UniProt Q07866).
Experiment [2] addresses KLC1-TPR N301A mutant (human) (UniProt Q07866).
Experiment [3] has as its target KLC1 TPR domain (kinesin light chain 1 tetratricopeptide repeat domain) (human) (UniProt Q07866).

Regarding Ac-EMDWDDSALT-OH [ALC1 peptide (alcadein-1)], in experiment [1], the equilibrium dissociation constant (Kd) stood at 44.3 µM, the dH was -1.7 kcal/mol and the stoichiometry N turned out to be 2.13. In experiment [2], this molecule had a Kd of 179 µM, a dH of -1.2 kcal/mol and a stoichiometry N of 1.02. In experiment [3], this molecule showed a Kd of 50.3 µM, a dH of -2.5 kcal/mol and a stoichiometry N of 1.85.
In experiment [3], Ac-EYTCPTEDIYLE-OH [JIP1 peptide (C-terminal residues of JNK-interacting protein 1)] yielded a dissociation constant (Kd) of 9.4 µM, a dH of -1.52 kcal/mol and a stoichiometry N of 1.02.
